Target: T1, H-NS (Escherichia coli, UniProt P0ACF8 1-137)
T1 sequence: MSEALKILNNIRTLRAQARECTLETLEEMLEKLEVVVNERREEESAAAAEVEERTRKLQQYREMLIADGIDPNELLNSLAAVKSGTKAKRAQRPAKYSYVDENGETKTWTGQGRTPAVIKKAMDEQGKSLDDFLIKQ
Test: EMSA; 0-80 ng/uL protein; 10 mM Mg2+; EMSA: 10 mM Tris-HCl pH 7.9, 125 mM KCl, 10 mM MgCl2, 0.1 mM DTT, 2.5% glycerol, 30 min, room temperature; bridging: 20 mM Tris-HCl pH 7.4, 150 mM NaCl, 1 mM DTT, 5% glycerol, 0.05% Tween 20, room temperature
Details: protein: recombinant; tags: His6 (N-terminal); chain copies: 2; blunt

B1: HBS dsDNA probe (P21/P22) (dsDNA)
DNA 1: TAATTATTATAACTAAAAGTTTCTTTAATAATAAAACGAATAACTTGCAGATTTGAAAT
DNA 2: ATTTCAAATCTGCAAGTTATTCGTTTTATTATTAAAGAAACTTTTAGTTATAATAATTA
- binding result: binds

From article PMC12455589, “Abundant bacterial nucleoid-associated protein H-NS limits plasmid transfer through mechanical modification of DNA”
